Patent US20160272683A1 (Novo Nordisk, published 2016)
Numbered stars: 1 amine (or outer) side, 2 acyl side, 3 side chain; on linkers, the order of the positions; unused ones are H or OH. Side chains are listed from the residue outwards. Ends that are not written are not given here. * marks the point of attachment. C20 diacid = O=C(O)CCCCCCCCCCCCCCCCCCC(=O)*; C18 diacid = O=C(O)CCCCCCCCCCCCCCCCC(=O)*; γGlu = O=C(O)[C@H](CCC(=O)[*:2])N[*:1]; C14 diacid = O=C(O)CCCCCCCCCCCCC(=O)*; AEEA = NCCOCCOCC(=O)O

How the values were obtained:
[1] = target: rat amylin receptor (rat calcitonin receptor with rat RAMP 3) (rat) (UniProt P32214); assay: SPA competition vs 125I-rat amylin, membranes with rat CTR + rat RAMP3 (Assay VI)
[2] = target: rat calcitonin receptor (rat) (UniProt P32214); assay: SPA competition vs 125I-calcitonin, membranes with rat CTR (Assay VIII)
[3] = target: T1, human amylin receptor (amylin 3(a) receptor: human calcitonin receptor with RAMP-3) (human, UniProt P30988 25-474; O60896 24-148, limits assumed); assay: SPA competition vs 125I-rat amylin, membranes with human CTR + RAMP-3 (Assay V)
T1 construct: whole, on cells; Assay V: membranes of the Amylin 3(a)/CRE-luc BHK cells on SPA beads; also called hAmylin-R
T1 sequence (looked up) 1: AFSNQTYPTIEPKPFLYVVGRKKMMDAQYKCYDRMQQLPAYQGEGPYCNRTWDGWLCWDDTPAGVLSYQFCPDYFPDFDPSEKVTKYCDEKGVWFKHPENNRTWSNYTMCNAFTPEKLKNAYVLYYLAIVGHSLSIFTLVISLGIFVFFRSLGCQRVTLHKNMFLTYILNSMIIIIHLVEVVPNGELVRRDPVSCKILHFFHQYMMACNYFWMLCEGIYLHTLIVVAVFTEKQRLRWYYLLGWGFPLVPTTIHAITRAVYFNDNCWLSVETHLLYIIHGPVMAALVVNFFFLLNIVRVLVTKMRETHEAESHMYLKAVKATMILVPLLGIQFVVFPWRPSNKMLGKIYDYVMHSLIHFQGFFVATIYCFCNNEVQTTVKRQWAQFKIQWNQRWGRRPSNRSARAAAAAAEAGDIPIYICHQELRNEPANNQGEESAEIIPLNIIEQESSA
T1 sequence (looked up) 2: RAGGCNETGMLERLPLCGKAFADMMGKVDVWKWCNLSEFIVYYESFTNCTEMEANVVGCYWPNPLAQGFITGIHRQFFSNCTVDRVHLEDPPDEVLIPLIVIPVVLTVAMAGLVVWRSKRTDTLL

[4] = target: T2, human calcitonin receptor (human, UniProt P30988 25-474); assay: SPA competition vs 125I-calcitonin, membranes with human CTR (Assay VII)
T2 construct: whole, on cells; Assay VII: membranes on SPA beads; also called hCT-R; hCTR
T2 sequence (looked up): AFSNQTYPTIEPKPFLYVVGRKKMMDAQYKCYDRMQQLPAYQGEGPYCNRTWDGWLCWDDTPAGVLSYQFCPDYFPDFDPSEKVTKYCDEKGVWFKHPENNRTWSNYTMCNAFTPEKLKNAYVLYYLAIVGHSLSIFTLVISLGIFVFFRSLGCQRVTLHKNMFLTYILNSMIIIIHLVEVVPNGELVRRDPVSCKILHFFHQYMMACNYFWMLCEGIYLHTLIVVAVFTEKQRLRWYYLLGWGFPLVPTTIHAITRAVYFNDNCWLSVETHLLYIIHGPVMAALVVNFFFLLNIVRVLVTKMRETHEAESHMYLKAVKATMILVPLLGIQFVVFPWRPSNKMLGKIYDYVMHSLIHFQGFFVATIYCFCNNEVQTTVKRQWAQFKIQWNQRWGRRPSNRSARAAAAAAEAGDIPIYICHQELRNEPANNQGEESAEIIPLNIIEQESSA
In short: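 SPA competition on membranes from BHK tk'ts 13 cells stably expressing human calcitonin receptor plus CRE-luciferase reporter; membranes 35 ng/μL final with 0.05 mg/well beads.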

[N-terminal(C20 diacid-gGlu-2xOEG), des1, 4G, 9V, 15Q, 21Q, 23Y, 30S, 31G, 32T, 33Y]mimylin (peptide)
IC50 [1]: 0.029 nM

B1: [N-terminal(C20 diacid-gGlu), des1, 9T, 21S, 23Y, 30S, 31G, 33Y]mimylin (peptide)
peptide: {C20 diacid-γGlu}-ASELSTATLGRLSAELHELSTYPRTETGSGSY-NH2
SMILES: CC(C)C[C@H](NC(=O)[C@H](CCCNC(=N)N)NC(=O)CNC(=O)[C@H](CC(C)C)NC(=O)[C@@H](NC(=O)[C@H](C)NC(=O)[C@@H](NC(=O)[C@H](CO)NC(=O)[C@H](CC(C)C)NC(=O)[C@H](CCC(=O)O)NC(=O)[C@H](CO)NC(=O)[C@H](C)NC(=O)CC[C@H](NC(=O)CCCCCCCCCCCCCCCCCCC(=O)O)C(=O)O)[C@@H](C)O)[C@@H](C)O)C(=O)N[C@@H](CO)C(=O)N[C@@H](C)C(=O)N[C@@H](CCC(=O)O)C(=O)N[C@@H](CC(C)C)C(=O)N[C@@H](Cc1c[nH]cn1)C(=O)N[C@@H](CCC(=O)O)C(=O)N[C@@H](CC(C)C)C(=O)N[C@@H](CO)C(=O)N[C@H](C(=O)N[C@@H](Cc1ccc(O)cc1)C(=O)N1CCC[C@H]1C(=O)N[C@@H](CCCNC(=N)N)C(=O)N[C@H](C(=O)N[C@@H](CCC(=O)O)C(=O)N[C@H](C(=O)NCC(=O)N[C@@H](CO)C(=O)NCC(=O)N[C@@H](CO)C(=O)N[C@@H](Cc1ccc(O)cc1)C(N)=O)[C@@H](C)O)[C@@H](C)O)[C@@H](C)O
IC50 [1]: 0.045 nM | IC50 [2]: 0.069 nM

{C14 diacid}-ASELSTAALGRLSAELHELATLPRTETGSGSP-NH2 [[N-terminal(C14 diacid), des1, 30S, 31G]mimylin]
IC50 [2]: 0.123 nM

B2: [des1, 4K(C20 diacid-gGlu), 30S, 31G]mimylin (peptide)
peptide: ASK([γGlu-C20 diacid])LSTAALGRLSAELHELATLPRTETGSGSP-NH2
modifications: N-terminus assumed
SMILES: CC(C)C[C@H](NC(=O)[C@H](C)NC(=O)[C@H](C)NC(=O)[C@@H](NC(=O)[C@H](CO)NC(=O)[C@H](CC(C)C)NC(=O)[C@H](CCCCNC(=O)CC[C@H](NC(=O)CCCCCCCCCCCCCCCCCCC(=O)O)C(=O)O)NC(=O)[C@H](CO)NC(=O)[C@H](C)N)[C@@H](C)O)C(=O)NCC(=O)N[C@@H](CCCNC(=N)N)C(=O)N[C@@H](CC(C)C)C(=O)N[C@@H](CO)C(=O)N[C@@H](C)C(=O)N[C@@H](CCC(=O)O)C(=O)N[C@@H](CC(C)C)C(=O)N[C@@H](Cc1c[nH]cn1)C(=O)N[C@@H](CCC(=O)O)C(=O)N[C@@H](CC(C)C)C(=O)N[C@@H](C)C(=O)N[C@H](C(=O)N[C@@H](CC(C)C)C(=O)N1CCC[C@H]1C(=O)N[C@@H](CCCNC(=N)N)C(=O)N[C@H](C(=O)N[C@@H](CCC(=O)O)C(=O)N[C@H](C(=O)NCC(=O)N[C@@H](CO)C(=O)NCC(=O)N[C@@H](CO)C(=O)N1CCC[C@H]1C(N)=O)[C@@H](C)O)[C@@H](C)O)[C@@H](C)O
IC50 [2]: 0.114 nM

B3: [N-terminal(C18 diacid-gGlu-2xOEG), des1, 4G, 9V, 15Q, 21Q, 23Y, 30S, 31G, 32T, 33Y]mimylin (peptide)
peptide: {C18 diacid-γGlu-AEEA-AEEA}-ASGLSTAVLGRLSQELHELQTYPRTETGSGTY-NH2
SMILES: CC(C)C[C@H](NC(=O)CNC(=O)[C@H](CO)NC(=O)[C@H](C)NC(=O)COCCOCCNC(=O)COCCOCCNC(=O)CC[C@H](NC(=O)CCCCCCCCCCCCCCCCC(=O)O)C(=O)O)C(=O)N[C@@H](CO)C(=O)N[C@H](C(=O)N[C@@H](C)C(=O)N[C@H](C(=O)N[C@@H](CC(C)C)C(=O)NCC(=O)N[C@@H](CCCNC(=N)N)C(=O)N[C@@H](CC(C)C)C(=O)N[C@@H](CO)C(=O)N[C@@H](CCC(N)=O)C(=O)N[C@@H](CCC(=O)O)C(=O)N[C@@H](CC(C)C)C(=O)N[C@@H](Cc1c[nH]cn1)C(=O)N[C@@H](CCC(=O)O)C(=O)N[C@@H](CC(C)C)C(=O)N[C@@H](CCC(N)=O)C(=O)N[C@H](C(=O)N[C@@H](Cc1ccc(O)cc1)C(=O)N1CCC[C@H]1C(=O)N[C@@H](CCCNC(=N)N)C(=O)N[C@H](C(=O)N[C@@H](CCC(=O)O)C(=O)N[C@H](C(=O)NCC(=O)N[C@@H](CO)C(=O)NCC(=O)N[C@H](C(=O)N[C@@H](Cc1ccc(O)cc1)C(N)=O)[C@@H](C)O)[C@@H](C)O)[C@@H](C)O)[C@@H](C)O)C(C)C)[C@@H](C)O
notes: mimylin derivative; des1 = residue 1 deleted; also called Ex. #121; 121
IC50 [3]: 0.371 nM | IC50 [4]: 0.12 nM

B4: [N-terminal(C20 diacid-gGlu-2xOEG), des1, 30S, 31G]mimylin (peptide)
peptide: {C20 diacid-γGlu-AEEA-AEEA}-ASELSTAALGRLSAELHELATLPRTETGSGSP-NH2
notes: mimylin derivative; des1 = residue 1 deleted; also called Ex. #42; 42
IC50 [3]: 0.159 nM | IC50 [4]: 0.05 nM

B5: [N-terminal(C20 diacid-gGlu), des1, 4Q, 9V, 15Q, 16R, 19R, 21Q, 23Y, 27Q, 30S, 31Q, 32T, 33Y]mimylin (peptide)
peptide: {C20 diacid-γGlu}-ASQLSTAVLGRLSQRLHRLQTYPRTQTGSQTY-NH2
SMILES: CC(C)C[C@H](NC(=O)[C@H](CCCNC(=N)N)NC(=O)CNC(=O)[C@H](CC(C)C)NC(=O)[C@@H](NC(=O)[C@H](C)NC(=O)[C@@H](NC(=O)[C@H](CO)NC(=O)[C@H](CC(C)C)NC(=O)[C@H](CCC(N)=O)NC(=O)[C@H](CO)NC(=O)[C@H](C)NC(=O)CC[C@H](NC(=O)CCCCCCCCCCCCCCCCCCC(=O)O)C(=O)O)[C@@H](C)O)C(C)C)C(=O)N[C@@H](CO)C(=O)N[C@@H](CCC(N)=O)C(=O)N[C@@H](CCCNC(=N)N)C(=O)N[C@@H](CC(C)C)C(=O)N[C@@H](Cc1c[nH]cn1)C(=O)N[C@@H](CCCNC(=N)N)C(=O)N[C@@H](CC(C)C)C(=O)N[C@@H](CCC(N)=O)C(=O)N[C@H](C(=O)N[C@@H](Cc1ccc(O)cc1)C(=O)N1CCC[C@H]1C(=O)N[C@@H](CCCNC(=N)N)C(=O)N[C@H](C(=O)N[C@@H](CCC(N)=O)C(=O)N[C@H](C(=O)NCC(=O)N[C@@H](CO)C(=O)N[C@@H](CCC(N)=O)C(=O)N[C@H](C(=O)N[C@@H](Cc1ccc(O)cc1)C(N)=O)[C@@H](C)O)[C@@H](C)O)[C@@H](C)O)[C@@H](C)O
notes: mimylin derivative; des1 = residue 1 deleted; also called Ex. #132; 132
IC50 [3]: 0.39 nM | IC50 [4]: 0.131 nM

B6: [N-terminal(C20 diacid-gGlu-3xOEG), des1, 30S, 31G]mimylin (peptide)
peptide: {C20 diacid-γGlu-AEEA-AEEA-AEEA}-ASELSTAALGRLSAELHELATLPRTETGSGSP-NH2
notes: mimylin derivative; des1 = residue 1 deleted; also called Ex. #43; 43
IC50 [3]: 0.164 nM | IC50 [4]: 0.05 nM
